1 molecule from US20230338569A1, “NaPi2b-TARGETED POLYMER ANTIBODY-DRUG CONJUGATE FOR THE TREATMENT OF OVARIAN CANCER” (Mersana Therapeutics, Inc., priority 2021, published 2023) can be followed below.

The test system of the test is patients with higher NaPi2b expression. The experiment in a line: MER-XMT-1536-1 clinical trial (ongoing, preliminary data), XMT-1536 monotherapy. The test is classed as in vivo, human. Particulars: patients with higher NaPi2b expression (n=47); preliminary data from MER-XMT-1536-1.

B1: XMT-1536: NaPi2b-targeted polymer antibody-drug conjugate: about 8-12 AF-HPA molecules conjugated to cysteines of antibody XMT-1535 via a PHF scaffold (conjugate, chains of the INN, looked up)
VH: QVQLVQSGAEVVKPGASVKMSCKASGYTFTGYNIHWVKQAPGQGLEWIGAIYPGNGDTSYKQKFRGRATLTADTSTSTVYMELSSLRSEDSAVYYCARGETARATFAYWGQGTLVTVSS
VL: DIQMTQSPSSLSASVGDRVTITCSASQDIGNFLNWYQQKPGKTVKVLIYYTSSLYSGVPSRFSGSGSGTDYTLTISSLQPEDFATYYCQQYSKLPLTFGQGTKLELK
modifications: AF-HPA payload via PHF polymer scaffold
notes: NaPi2b-targeted polymer antibody-drug conjugate: about 8-12 AF-HPA molecules conjugated to cysteines of antibody XMT-1535 via a PHF scaffold
Consider B1, for which the “DCR (disease control rate)” value is listed as 74%, the “ORR (objective response rate)” value is recorded as 32% and the “median duration of response” value was “approximately 5 months”.
